The target of the test is phospho-NEDD8 (human (cDNA from HEK393T cells), UniProt Q15843 1-76, phosphoserine at 65). Kind of test: crystal structure.

B1: human Parkin R0RBR (141-465) (domain or fragment)
chain: SIYNSFYVYCKGPCQRVQPGKLRVQCSTCRQATLTLTQGPSCWDDVLIPNRMSGECQSPHCPGTSAEFFFKCGAHPTSDKETSVALHLIATNSRNITCITCTDVRSPVLVFQCNSRHVICLDCFHLYCVTRLNDRQFVHDPQLGYSLPCVAGCPNSLIKELHHFRILGEEQYNRYQQYGAEECVLQMGGVLCPRPGCGAGLLPEPDQRKVTCEGGNGLGCGFAFCRECKEAYHEGECSAVFEASGTTTQAYRVDERAAEQARWEAASKETIKKTTKPCPRCHVPVEKNGGCMHMKCPQPQCRLEWCWNCGCEWNRVCMGDHWFDV
Turning to B1, the binding result is “binds”.

B2: human Parkin R0RBR K211N (141-465) (domain or fragment)
chain: SIYNSFYVYCKGPCQRVQPGKLRVQCSTCRQATLTLTQGPSCWDDVLIPNRMSGECQSPHCPGTSAEFFFNCGAHPTSDKETSVALHLIATNSRNITCITCTDVRSPVLVFQCNSRHVICLDCFHLYCVTRLNDRQFVHDPQLGYSLPCVAGCPNSLIKELHHFRILGEEQYNRYQQYGAEECVLQMGGVLCPRPGCGAGLLPEPDQRKVTCEGGNGLGCGFAFCRECKEAYHEGECSAVFEASGTTTQAYRVDERAAEQARWEAASKETIKKTTKPCPRCHVPVEKNGGCMHMKCPQPQCRLEWCWNCGCEWNRVCMGDHWFDV
Regarding B2, the binding result was “binds”.

(Values after doi:10.1101/2023.11.21.568018 (bioRxiv, 2023).)
